B1: Hairpin Ribozyme (parent)
chain: GUCCUCUUUCACGUGCGCGUGAAAGAGAGAAGUGAACCAGAGAAACACACGUUGUGGUAUAUUACCUGGUA

Variants of: B1
Assay: self-cleavage, relative activity (ratio to wild type); higher = more cleavage; co-transcriptional

Variant	self-cleavage
GUCCUGUUUCACGUGCGCGUGAAAGAGAGAAGUGAACCAGAGAAACACCCGUUGUGGUAUAUUACCUGGUA	0.0827
GUCCUGUUUCACGUGCGCGUGAAAGAGGGAAGUGAACCAGAGAAACACACGUUGUGGUAUAUUACCUGGUA	0.605
GUCCUGUUUCACGUGCGCGUGAAAGAGCGAAGUGAACCAGAGAAACACACGUUGUGGUAUAUUACCUGGUA	0.145
GUCCUGUUUCACGUGCGCGUGAAAGAGUGAAGUGAACCAGAGAAACACACGUUGUGGUAUAUUACCUGGUA	0.22
GUCCUGUUUCACGUGGGCGUGAAAGAGAGAAGUGAACCAGAGAAACACACGUUGUGGUAUAUUACCUGGUA	0.423
GUCCUGUUUCACCUGCGCGUGAAAGAGAGAAGUGAACCAGAGAAACACACGUUGUGGUAUAUUACCUGGUA	0.381
GUCCUGUUUCACAUGCGCGUGAAAGAGAGAAGUGAACCAGAGAAACACACGUUGUGGUAUAUUACCUGGUA	0.45
GUCCUGUUUCACGUGCGCGUGAAAGAGAGAAGUGAACCAGCGAAACACACGUUGUGGUAUAUUACCUGGUA	0.552
GUCCUGUUUCACGUGCGCGUGAAAGAGAGAAGUGAACCAGAGAAACACACCUUGUGGUAUAUUACCUGGUA	0.458
GUCCUGUUUCACGUGCGCGUGAAAGAGAGAAGUGAACCAGAGAAACACACAUUGUGGUAUAUUACCUGGUA	0.682
GUCCUGUUUCACGUGCGCGUGAAAGAGAGAAGUGAACCAGAGAAACACACGUUGUUGUAUAUUACCUGGUA	0.141
GUCCUGUUUCACGUGCGCGUGAAAGAGAGAAGUGAACCAGAGAAACACACGUUGUGGUAUAUUACCUGGUU	0.409
GUCCUGUUACACGUGCGCGUGAAAGAGAGAAGUGAACCAGAGAAACACACGUUGUGGUAUAUUACCUGGUA	0.274
GUCCUGUUGCACGUGCGCGUGAAAGAGAGAAGUGAACCAGAGAAACACACGUUGUGGUAUAUUACCUGGUA	0.208
GUCCUAUUUCACGUGCGCGUGAAAGAGAGAAGUGAACCAGAGAAACACACGUUGCGGUAUAUUACCUGGUA	0.243
GUCCUAUUUCACGUGCGCGUGAAAGAGAGAAGUGAACCAGAGAAACACACGUUGUGGUAGAUUACCUGGUA	0.4
GUCCUAUUUCACGUGCGCGUGAAAGAGAGAAGUGAACCAGAGAAACACACGUUGUGGUACAUUACCUGGUA	0.793
GUCCUGUUUCACGUGCGCGUGUAAGAGAGAAGUGAACCAGAGAAACACACGUUGUGGUAUAUUACCUGGUA	0.377
GUCCUGUUUCACGUGCGCGUGGAAGAGAGAAGUGAACCAGAGAAACACACGUUGUGGUAUAUUACCUGGUA	0.52

Variant	self-cleavage
GUCCUGUUUCACGUGCGCGUGAAAGAGAGAAGUGGACCAGAGAAACACACGUUGUGGUAUAUUACCUGGUA	0.414
GUCCUAUUUCACGUGCGCGUGAAAGAGAGAAGUGAACCAGAGAAACACACGGUGUGGUAUAUUACCUGGUA	0.547
GUCCUGUUUCACGUGCGCGUGAAAGAGAGAAGUGAACCAGAGAAACACACGUUAUGGUAUAUUACCUGGUA	0.28
GUCCUGUUUCACGUGCGCGUGAAAGAGAGAAGUGAACCAGAGAAACACACGUUUUGGUAUAUUACCUGGUA	0.267
GUCCUGUUUCACGUGCGCGUGAAAGAGAGAAGUGAACCAGAGAAACACACGUUGUGGUAUAUUAUCUGGUA	0.221
GUCCUAUUUCACGUGCGCGUGAAAGAGAGAAGAGAACCAGAGAAACACACGUUGUGGUAUAUUACCUGGUA	0.129
GUCCUGUUUCACGUGCGCGUGAAAGAGAGAAGUCAACCAGAGAAACACACGUUGUGGUAUAUUACCUGGUA	1.03
GUCCUAUUUCACGUGCGCGUGAAAGAGAGAAGUGAACCAGAGAAACACACGUUGUGGAAUAUUACCUGGUA	0.457
GUCCUGUUUCACGUGCGCGUGAAAGAGAGAAGUGAACCAGAGAAACACACGUUGUGAUAUAUUACCUGGUA	0.11
GUCCUGUUUCACGUGCGCGUGAAAGAGAGAACUGAACCAGAGAAACACACGUUGUGGUAUAUUACCUGGUA	0.0741
GUCCUGUUUCACGUGCGCGUGAAAGAGAGAAGUGAACCAGAGAAACACAUGUUGUGGUAUAUUACCUGGUA	0.265
GUCCUGUUUCACGUGCGCGUGAAAGAGAGAAGUGAACCAGAGAAAGACACGUUGUGGUAUAUUACCUGGUA	0.124
GUCCUGUUUCACGUGCGCGUGAAAGAGAGAAGUGAAUCAGAGAAACACACGUUGUGGUAUAUUACCUGGUA	0.257
GUCCUGUUUCACGUGCGCGUGAAAGAGAGAAGUGAACCAGAGGAACACACGUUGUGGUAUAUUACCUGGUA	0.0944
GUCCUGUUUCACGUGCGCGUGAAAGAGAGAAGUGAACCAGAGUAACACACGUUGUGGUAUAUUACCUGGUA	0.0915
GUCCUAUUUCACGUGCGCGUGAAAGAGAGAAGUGAACCAGAGAAACACACGUUGUGGUAUAUUACCUGGCA	0.618
GUCCUAUUUCACGUGCGCGUGAAAGAGAGAAGUGAACCAGAGAAACACACGUUGUGGUAUAUUACCUGGAA	0.598
GUCCUGUAUCACGUGCGCGUGAAAGAGAGAAGUGAACCAGAGAAACACACGUUGUGGUAUAUUACCUGGUA	0.263
GUCCUGUCUCACGUGCGCGUGAAAGAGAGAAGUGAACCAGAGAAACACACGUUGUGGUAUAUUACCUGGUA	0.228
